From PMC2063832 come the findings set out here.

The test system of the series is La protein (Homo sapiens). The experiment in a line: immunoprecipitation.

Substance EBER1 wild type had a binding signal (reference (wild type)) of 1.
